Consider 1 substance from publication PMC6313406.

This assay addresses Dimeric Lip3 (isoenzyme 3 of Candida rugosa lipase) (Candida rugosa) (UniProt P32947). Nature of the assay: SEC; Sephacryl S200 column (1.6x60 cm), 25 mM Tris/HCl pH 7.5, 0.15 M NaCl, 0.3 mL/min, no detergent; calibrated with the high molecular weight marker kit.

With “Dimeric Lip3 (isoenzyme 3 of Candida rugosa lipase) (from UniProt P32947 16-549)”, the stoichiometry N is 2.

As a reminder, the stoichiometry N is a count of units in the complex or per binding partner.
